{"source": "patent US20240398767A1", "about": "“INHIBITORS OF THE MTDH-SND1 PROTEIN COMPLEX FOR CANCER THERAPY” (The Trustees of Princeton University, priority 2021, published 2024)", "binders": {"B1": {"name": "CLuc-MTDH (other)", "chain": "MSGYVNNPEATNALIDKDGWLHSGDIAYWDEDEHFFIVDRLKSLIKYKGYQVAPAELESILLQHPNIFDAGVAGLPDDDAGELPAAVVVLEHGKTMTEKEIVDYVASQVTTAKKLRGGVVFVDEVPKGLTGKLDARKIREILIKAKKGGKSKLGGGSGGGSSSADPNSDWNAPAEEWGNWVDEYPYDVPDYA", "notes": "Expressed in HEK293T cells and used as cell lysate; also called CLuc-MTDH-HA; MTDH-CLuc"}, "B2": {"name": "MTDH (endogenous, SCP28 breast cancer cell lysate) (other, human, UniProt Q86UE4 1-582, looked up)", "chain": "MAARSWQDELAQQAEEGSARLREMLSVGLGFLRTELGLDLGLEPKRYPGWVILVGTGALGLLLLFLLGYGWAAACAGARKKRRSPPRKREEAAAVPAAAPDDLALLKNLRSEEQKKKNRKKLSEKPKPNGRTVEVAEGEAVRTPQSVTAKQPPEIDKKNEKSKKNKKKSKSDAKAVQNSSRHDGKEVDEGAWETKISHREKRQQRKRDKVLTDSGSLDSTIPGIENTITVTTEQLTTASFPVGSKKNKGDSHLNVQVSNFKSGKGDSTLQVSSGLNENLTVNGGGWNEKSVKLSSQISAGEEKWNSVSPASAGKRKTEPSAWSQDTGDANTNGKDWGRSWSDRSIFSGIGSTAEPVSQSTTSDYQWDVSRNQPYIDDEWSGLNGLSSADPNSDWNAPAEEWGNWVDEERASLLKSQEPIPDDQKVSDDDKEKGEGALPTGKSKKKKKKKKKQGEDNSTAQDTEELEKEIREDLPVNTSKTRPKQEKAFSLKTISTSDPAEVLVKNSQPIKTLPPATSTEPSVILSKSDSDKSSSQVPPILQETDKSKSNTKQNSVPPSQTKSETSWESPKQIKKKKKARRET", "notes": "Pulled down with anti-MTDH antibody and Protein-A/G beads; also called metadherin"}, "B3": {"name": "SND1-NLuc (other)", "chain": "EQKLISEEDLVPTVQRGIIKMVLSGCAIIVRGQPRGGPPPERQINLSNIRAGNLARRAAATQPDAKDTPDEPWAFPAREFLRKKLIGKEVCFTIENKTPQGREYGMIYLGKDTNGENIAESLVAEGLATRREGMRANNPEQNRLSECEEQAKAAKKGMWSEGNGSHTIRDLKYTIENPRHFVDSHHQKPVNAIIEHVRDGSVVRALLLPDYYLVTVMLSGIKCPTFRREADGSETPEPFAAEAKFFTESRLLQRDVQIILESCHNQNILGTILHPNGNITELLLKEGFARCVDWSIAVYTRGAEKLRAAERFAKERRLRIWRDYVAPTANLDQKGGGSGGGSGGGSEDAKNIKKGPAPFYPLEDGTAGEQLHKAMKRYALVPGTIAFTDAHIEVNITYAEYFEMSVRLAEAMKRYGLNTNHRIVVCSENSLQFFMPVLGALFIGVAVAPANDIYNERELLNSMNISQPTVVFVSKKGLQKILNVQKKLPIIQKIIIMDSKTDYQGFQSMYTFVTSHLPPGFNEYDFVPESFDRDKTIALIMNSSGSTGLPKGVALPHRTACVRFSHARDPIFGNQIIPDTAILSVVPFHHGFGMFTTLGYLICGFRVVLMYRFEEELFLRSLQDYKIQSALLVPTLFSFFAKSTLIDKYDLSNLHEIASGGAPLSKEVGEAVAKRFHLPGIRQGYGLTETTSAILITPEGDDKPGAVGKVVPFFEAKVVDLDTGKTLGVNQRGELCVRGPMIMSGYVNNPEATNALIDKDG", "notes": "Expressed in HEK293T cells and used as cell lysate; also called Myc-SND1-NLuc; split-luc component"}}, "key": {"[1]": {"biological_target": "B3", "assay": "split-luciferase complementation, 293T cells", "protocol": "(§1) Luciferase-based screening. Seed HEK293T cells on 3×15 cm dish at 18-24 hr before transfection with 7-8×10⁶ cells per dish targeting 70-80% confluence when start transfection. 20 μg of pCDNA3.1-SND1-NLuc, pCDNA3.1-CLuc-MTDH, or 2 μg of pCDNA3.1-NLuc-CLuc plasmids that described above were transfected to each dish. 72 hr after transfection the cells were lysed with 5 ml of luciferase lysis buffer (2 mM EDTA, 20 mM DTT, 10% glycerol, 1% Triton X-100, 25 mM Tris base, adjusted to pH7.8 with H₃PO₄) at 4° C. for 20 min. The protein lysates were centrifuged at 13,000 rpm for 10 min, and the supernatant were collected.\n(§2) For small chemical compound screening, white, flat-bottom, solid 384-well plates were used. Compounds were added into each well as 0.1 μl of 10 mM DMSO solution (or same amount of DMSO, serve as control). The first and last columns were free, and MTDH wild type ([…]) or mutant ([…]) peptides were added as positive and negative controls right before screening. Same amount of MTDH-CLuc and SND1-NLuc were pre-mixed at 4° C. for 30 min to generate split-luc. 5 μl of split- or linked-luc was added into each well. 15 μl of luciferase assay buffer (25 mM Glycylglycine pH 7.8, 15 mM K₃PO₄ pH 7.8, 15 mM MgSO₄, 4 mM EGTA, 2 mM ATP added just before use, 10 mM DTT added just before use and 1 mM D-Luciferin added just before use) was then added into each well to get a 20 μl reaction system with 50 μM of compounds (peptides) in each well. The plates were incubated at 4° C. for 1 hr and luciferase activity at each well was measured."}, "[2]": {"biological_target": "T1, NLuc (firefly luciferase N-terminal fragment, 1-416aa) (UniProt P08659 1-416 = luciferase)", "T1 construct": "range 1-416; Fragment alone, without SND1", "assay": "split-luciferase complementation, 293T cells", "protocol": "as §1, §2"}, "[3]": {"biological_target": "T2, SND1 (endogenous, SCP28 breast cancer cell lysate) (human, UniProt Q7KZF4 2-910)", "T2 construct": "Detected by Western blot after MTDH immunoprecipitation; also called Staphylococcal nuclease domain-containing 1", "T2 sequence (looked up)": "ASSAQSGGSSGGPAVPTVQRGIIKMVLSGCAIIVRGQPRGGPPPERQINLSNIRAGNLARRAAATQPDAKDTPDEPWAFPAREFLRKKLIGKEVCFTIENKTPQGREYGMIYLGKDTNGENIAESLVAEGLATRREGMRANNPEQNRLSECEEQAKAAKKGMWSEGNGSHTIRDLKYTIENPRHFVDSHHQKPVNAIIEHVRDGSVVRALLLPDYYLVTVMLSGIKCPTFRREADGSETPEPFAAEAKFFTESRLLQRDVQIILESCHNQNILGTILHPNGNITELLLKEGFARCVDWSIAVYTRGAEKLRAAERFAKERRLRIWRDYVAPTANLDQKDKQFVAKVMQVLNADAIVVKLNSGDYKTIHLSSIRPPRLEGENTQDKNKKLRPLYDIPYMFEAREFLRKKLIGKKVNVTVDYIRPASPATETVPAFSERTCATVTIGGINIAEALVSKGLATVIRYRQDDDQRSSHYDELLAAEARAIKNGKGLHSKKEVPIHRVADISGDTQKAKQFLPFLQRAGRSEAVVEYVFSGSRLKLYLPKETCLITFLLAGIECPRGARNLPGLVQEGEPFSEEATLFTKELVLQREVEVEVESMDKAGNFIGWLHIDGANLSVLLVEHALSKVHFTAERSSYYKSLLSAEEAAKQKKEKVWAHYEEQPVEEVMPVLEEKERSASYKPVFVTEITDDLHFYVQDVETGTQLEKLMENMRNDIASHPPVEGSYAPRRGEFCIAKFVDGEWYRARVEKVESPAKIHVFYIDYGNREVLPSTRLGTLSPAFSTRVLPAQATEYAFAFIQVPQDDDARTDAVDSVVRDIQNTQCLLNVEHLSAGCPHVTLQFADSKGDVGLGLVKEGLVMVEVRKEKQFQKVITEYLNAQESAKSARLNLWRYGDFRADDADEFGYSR", "assay": "Co-IP from SCP28 lysate with 2 µg MTDH antibody", "protocol": "(§3) FIG. 10E, Schematic diagram of Co-IP based confirmation of MTDH-SND1 inhibitory compounds (left). SCP28 cells were lysed for IP assay.2 μg of MTDH antibody together with 500 μM of MTDH wild type (Pep-WT) or mutant (Pep-MT) peptides were added into each 1 ml of samples. Red star indicates wild type MTDH peptide competing off SND1 that binds to MTDH.\n(§4) Co-immunoprecipitation assay (Co-IP), which is a commonly used standard test to determine protein-protein interaction, was next employed to validate the candidates. Lysates of breast cancer cell line SCP28, a single cell-derived subline from the MDA-MB-231 TNBC cell line²⁵, was immunoprecipitated with anti-MTDH antibody alone or together with inhibitors (FIG. 3F and FIG. 10E). The samples were then incubated with Protein-A/G beads to pull down MTDH, followed by Western blot analysis to detect SND1. In such co-TP experiment, MTDH-WT but not MTDH-MT peptide blocks MTDH-SND1 interaction (FIG. 10E). […] Using multiple screening and validation platforms, two classes of compounds, C26s and C32s, were obtained that inhibit MTDH-SND1 interaction."}, "[4]": {"biological_target": "B3", "assay": "split-luciferase competition assay, HEK293T lysates", "protocol": "as §1\nas §2, with “15 μl of luciferase assay buffer (25 mM Glycylglycine pH 7.8, 15 mM K₃PO₄ pH 7.8, 15 mM MgSO₄, 4 mM EGTA, 2 mM ATP added just before use, 10 mM DTT added just before use and 1 mM D-Luciferin added just before use) was then added into each well to get a 20 μl reaction system with 50 μM of compounds (peptides) in each well.” left out"}, "[5]": {"biological_target": "T2, SND1 (endogenous, SCP28 breast cancer …)", "assay": "Co-IP competition, SCP28 lysate, anti-MTDH antibody, Western blot for SND1", "protocol": "as §3, §4"}, "[6]": {"biological_target": "T3, CLuc (firefly luciferase C-terminal fragment, 398-550aa) (UniProt P08659 398-550 = luciferase)", "T3 construct": "Fragment alone, without MTDH", "assay": "split-luciferase complementation, 293T cells", "protocol": "as §1, §2"}}, "data": [{"binder": "B1", "values": [{"measurement": "binding result", "setting": "[1]", "result": "binds"}, {"measurement": "binding result", "setting": "[2]", "result": "no binding"}]}, {"binder": "B2", "values": [{"measurement": "binding result", "setting": "[3]", "result": "binds"}]}, {"binder": "PNSDANAPAEEAGNW (also called Pep-MT; MTDH mutant peptide)", "note": "[mutant MTDH (MTDH-MT) peptide]", "values": [{"measurement": "binding result", "setting": "[4]", "result": "no binding (tested: 50 µM)"}, {"measurement": "binding result", "setting": "[5]", "result": "no binding (tested: 500 µM)"}]}, {"binder": "B3", "values": [{"measurement": "binding result", "setting": "[6]", "result": "no binding"}]}]}
